Reference: patent US20240261333A1, “NOVEL TARGETS FOR ENHANCING ANTI-TUMOR IMMUNITY” (THE BROAD INSTITUTE, INC., priority 2021, published 2024)

T1: B3GNT2 (Homo sapiens, UniProt Q9NY97)
T1 construct: The respective ORFs of candidate genes [CD274 (NM_014143), MCL1 (NM_021960), JUNB (NM_002229), and B3GNT2 (NM_006577)] were synthesized; expressed in transfected cells; host or cells: A375 melanoma cells (lentiviral ORF overexpression)
T1 sequence (Q9NY97 1-397): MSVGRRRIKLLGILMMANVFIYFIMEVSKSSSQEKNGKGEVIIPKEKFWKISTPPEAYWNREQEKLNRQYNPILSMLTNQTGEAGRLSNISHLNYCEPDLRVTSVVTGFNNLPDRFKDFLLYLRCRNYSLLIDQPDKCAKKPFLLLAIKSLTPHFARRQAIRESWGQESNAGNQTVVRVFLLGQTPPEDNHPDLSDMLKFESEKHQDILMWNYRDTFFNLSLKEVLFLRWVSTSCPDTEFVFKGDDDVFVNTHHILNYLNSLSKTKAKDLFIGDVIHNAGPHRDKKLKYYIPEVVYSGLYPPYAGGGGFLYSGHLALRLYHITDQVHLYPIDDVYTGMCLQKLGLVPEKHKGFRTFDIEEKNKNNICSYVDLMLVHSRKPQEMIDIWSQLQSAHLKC

B1: PSMA3 (protein)
chain: SSIGTGYDLSASTFSPDGRVFQVEYAMKAVENSSTAIGIRCKDGVVFGVEKLVLSKLYEEGSNKRLFNVDRHVGMAVAGLLADARSLADIAREEASNFRSNFGYNIPLKHLADRVAMYVHAYTLYSAVRPFGCSFMLGSYSVNDGAQLYMIDPSGVSYGYWGCAIGKARQAAKTEIEKLQMKEMTCRDIVKEVAKIIYIVHDEVKDKAFELELSWVGELTNGRHEIVPKDIREEAEKYAKESLKEEDESDDDNM
B2: TGM1 (protein)
chain: MMDGPRSDVGRWGGNPLQPPTTPSPEPEPEPDGRSRRGGGRSFWARCCGCCSCRNAADDDWGPEPSDSRGRGSSSGTRRPGSRGSDSRRPVSRGSGVNAAGDGTIREGMLVVNGVDLLSSRSDQNRREHHTDEYEYDELIVRRGQPFHMLLLLSRTYESSDRITLELLIGNNPEVGKGTHVIIPVGKGGSGGWKAQVVKASGQNLNLRVHTSPNAIIGKFQFTVRTQSDAGEFQLPFDPRNEIYILFNPWCPEDIVYVDHEDWRQEYVLNESGRIYYGTEAQIGERTWNYGQFDHGVLDACLYILDRRGMPYGGRGDPVNVSRVISAMVNSLDDNGVLIGNWSGDYSRGTNPSAWVGSVEILLSYLRTGYSVPYGQCWVFAGVTTTVLRCLGLATRTVTNFNSAHDTDTSLTMDIYFDENMKPLEHLNHDSVWNFHVWNDCWMKRPDLPSGFDGWQVVDATPQETSSGIFCCGPCSVESIKNGLVYMKYDTPFIFAEVNSDKVYWQRQDDGSFKIVYVEEKAIGTLIVTKAISSNMREDITYLYKHPEGSDAERKAVETAAAHGSKPNVYANRGSAEDVAMQVEAQDAVMGQDLMVSVMLINHSSSRRTVKLHLYLSVTFYTGVSGTIFKETKKEVELAPGASDRVTMPVAYKEYRPHLVDQGAMLLNVSGHVKESGQVLAKQHTFRLRTPDLSLTLLGAAVVGQECEVQIVFKNPLPVTLTNVVFRLEGSGLQRPKILNVGDIGGNETVTLRQSFVPVRPGPRQLIASLDSPQLSQVHGVIQVDVAPAPGDGGFFSDAGGDSHLGETIPMASRGGA
B3: NAP1L1 (protein)
chain: ADIDNKEQSELDQDLDDVEEVEEEETGEETKLKARQLTVQMMQNPQILAALQERLDGLVETPTGYIESLPRVVKRRVNALKNLQVKCAQIEAKFYEEVHDLERKYAVLYQPLFDKRFEIINAIYEPTEEECEWKPDEEDEISEELKEKAKIEDEKKDEEKEDPKGIPEFWLTVFKNVDLLSDMVQEHDEPILKHLKDIKVKFSDAGQPMSFVLEFHFEPNEYFTNEVLTKTYRMRSEPDDSDPFSFDGPEIMGCTGCQIDWKKGKNVTLKTIKKKQKHKGRGTVRTVTKTVSNDSFFNFFAPPEVPESGDLDDDAEAILAADFEIGHFLRERIIPRSVLYFTGEAIEDDDDDYDEEGEEADEEGEEEGDEENDPDYDPKKDQNPAEC
B4: SPARC (protein)
chain: APQQEALPDETEVVEETVAEVTEVSVGANPVQVEVGEFDDGAEETEEEVVAENPCQNHHCKHGKVCELDENNTPMCVCQDPTSCPAPIGEFEKVCSNDNKTFDSSCHFFATKCTLEGTKKGHKLHLDYIGPCKYIPPCLDSELTEFPLRMRDWLKNVLVTLYERDEDNNLLTEKQKLRVKKIHENEKRLEAGDHPVELLARDFEKNYNMYIFPVHWQFGQLDQHPIDGYLSHTELAPLRAPLIPMEHCTTRFFETCDLDNDKYIALDEWAGCFGIKQKDIDKDLVI
B5: LUC7L3 (protein, UniProt O95232 1-432, looked up)
Luc7-like protein 3: MISAAQLLDELMGRDRNLAPDEKRSNVRWDHESVCKYYLCGFCPAELFTNTRSDLGPCEKIHDENLRKQYEKSSRFMKVGYERDFLRYLQSLLAEVERRIRRGHARLALSQNQQSSGAAGPTGKNEEKIQVLTDKIDVLLQQIEELGSEGKVEEAQGMMKLVEQLKEERELLRSTTSTIESFAAQEKQMEVCEVCGAFLIVGDAQSRVDDHLMGKQHMGYAKIKATVEELKEKLRKRTEEPDRDERLKKEKQEREEREKEREREREERERKRRREEEEREKERARDRERRKRSRSRSRHSSRTSDRRCSRSRDHKRSRSRERRRSRSRDRRRSRSHDRSERKHRSRSRDRRRSKSRDRKSYKHRSKSRDREQDRKSKEKEKRGSDDKKSSVKSGSREKQSEDTNTESKESDTKNEVNGTSEDIKSEGDTQSN
B6: SYNPO (protein, UniProt Q8N3V7 1-929, looked up)
Synaptopodin: MLGPHLPPPPLAPSEGRPTPCAFQIPDGSYRCLALEAEESSGEEGLQGEVGPTDLEEDEGVSRSGDDSACRVTQGTPQLPKALGIQPPSCSREEQGASQHDDRASQDWDVVKAGQMMTASPSPGPGPRVAQKPALGRSTSLTEKDLKEAKARSQQIAAQLTTPPSSNSRGVQLFNRRRQRVNEFTLESHGQRGQKPSQESLRVLPSSLPGHAPGLSLSSTSLPEPGPPRHPSPQSPDRGVPGHSMEGYSEEASLLRHLEKVASEEEEVPLVVYLKENAALLTANGLHLSQNREAQQSSPAPPPAEVHSPAADVNQNLASPSATLTTPTSNSSHNPPATDVNQNPPATVVPQSLPLSSIQQNSSEAQLPSNGTGPASKPSTLCADGQPQAPAEEVRCSTLLIDKVSTPATTTSTFSREATLIPSSRPPASDFMSSSLLIDIQPNTLVVSADQEMSGRAAATTPTKVYSEVHFTLAKPPSVVNRTARPFGIQAPGGTSQMERSPMLERRHFGEKAPAPQPPSLPDRSPRPQRHIMSRSPMVERRMMGQRSPASERRPLGNFTAPPTYTETLSTAPLASWVRSPPSYSVLYPSSDPKSSHLKGQAVPASKTGILEESMARRGSRKSMFTFVEKPKVTPNPDLLDLVQTADEKRRQRDQGEVGVEEEPFALGAEASNFQQEPAPRDRASPAAAEEVVPEWASCLKSPRIQAKPKPKPNQNLSEASGKGAELYARRQSRMEKYVIESSSHTPELARCPSPTMSLPSSWKYPTNAPGAFRVASRSPARTPPASLYHGYLPENGVLRPEPTKQPPYQLRPSLFVLSPIKEPAKVSPRAASPAKPSSLDLVPNLPKGALPPSPALPRPSRSSPGLYTSPGQDSLQPTAVSPPYGGDISPVSPSRAWSPRAKQAPRPSFSTRNAGIEAQVWKPSFCFK
B7: PURA (protein)
chain: ADRDSGSEQGGAALGSGGSLGHPGSGSGSGGGGGGGGGGGGSGGGGGGAPGGLQHETQELASKRVDIQNKRFYLDVKQNAKGRFLKIAEVGAGGNKSRLTLSMSVAVEFRDYLGDFIEHYAQLGPSQPPDLAQAQDEPRRALKSEFLVRENRKYYMDLKENQRGRFLRIRQTVNRGPGLGSTQGQTIALPAQGLIEFRDALAKLIDDYGVEEEPAELPEGTSLTVDNKRFFFDVGSNKYGVFMRVSEVKPTYRNSITVPYKVWAKFGHTFCKYSEEMKKIQEKQREKRAACEQLHQQQQQQQEETAAATLLLQGEEEGEED
B8: CALML5 (protein)
chain: AGELTPEEEAQYKKAFSAVDTDGNGTINAQELGAALKATGKNLSEAQLRKLISEVDSDGDGEISFQEFLTAAKKARAGLEDLQVAFRAFDQDGDGHITVDELRRAMAGLGQPLPQEELDAMIREADVDQDGRVNYEEFARMLAQE
B9: SERPINB3 (protein)
chain: MNSLSEANTKFMFDLFQQFRKSKENNIFYSPISITSALGMVLLGAKDNTAQQIKKVLHFDQVTENTTGKAATYHVDRSGNVHHQFQKLLTEFNKSTDAYELKIANKLFGEKTYLFLQEYLDAIKKFYQTSVESVDFANAPEESRKKINSWVESQTNEKIKNLIPEGNIGSNTTLVLVNAIYFKGQWEKKFNKEDTKEEKFWPNKNTYKSIQMMRQYTSFHFASLEDVQAKVLEIPYKGKDLSMIVLLPNEIDGLQKLEEKLTAEKLMEWTSLQNMRETRVDLHLPRFKVEESYDLKDTLRTMGMVDIFNGDADLSGMTGSRGLVLSGVLHKAFVEVTEEGAEAAAATAVVGFGSSPTSTNEEFHCNHPFLFFIRQNKTNSILFYGRFSSP
B10: ERLEC1 (protein)
chain: LPQLSDDIPFRVNWPGTEFSLPTTGVLYKEDNYVIMTTAHKEKYKCILPLVTSGDEEEEKDYKGPNPRELLEPLFKQSSCSYRIESYWTYEVCHGKHIRQYHEEKETGQKINIHEYYLGNMLAKNLLFEKEREAEEKEKSNEIPTKNIEGQMTPYYPVGMGNGTPCSLKQNRPRSSTVMYICHPESKHEILSVAEVTTCEYEVVILTPLLCSHPKYRFRASPVNDIFCQSLPGSPFKPLTLRQLEQQEEILRVPFRRNKEEDLQSTKEERFPAIHKSIAIGSQPVLTVGTTHISKLTDDQLIKEFLSGSYCFRGGVGWWKYEFCYGKHVHQYHEDKDSGKTSVVVGTWNQEEHIEWAKKNTARAYHLQDDGTQTVRCKESDSPHAVTVYMLEPHSCQYILGVESPVICKILDTADENGLLSLPN

target: T1, B3GNT2; assay: Co-IP of FLAG-tagged B3GNT2 followed by mass spectrometry; assay type: cell-based; parameters: C-term IgG / C-term flag: unit not given here; conditions: Co-IP followed by mass spectrometry of B3GNT2; C-term tag, FLAG pull-down
In short: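 Co-purifying proteins were identified by fractionated nano-LC–MS/MS on an Orbitrap Elite, run data-dependent. Beforehand, lysates in 1% Triton X-100/HEPES buffer were incubated overnight at 4° C with anti-FLAG or […] and pulled down on Protein A/G magnetic beads for 4 h. Duplicate biological replicates.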

C-term flag	Molecule
0	B1
8	B2
4	B3
4	B4
3	B5
7	B6
3	B7
4	B8
9	B9

same assay, conditions: Co-IP followed by mass spectrometry of B3GNT2; C-term tag, IgG pull-down

C-term IgG	Molecule
0	B1
10	B2
0	B3
0	B4
3	B5
4	B6
0	B7
0	B8
2	B9

same assay, conditions: Co-IP followed by mass spectrometry of B3GNT2; N-term tag, FLAG pull-down

N-term FLAG	Molecule
4	B1
17	B2
0	B3
0	B4
4	B5
4	B6
0	B7
0	B8
10	B9

same assay, conditions: Co-IP followed by mass spectrometry of B3GNT2; N-term tag, IgG pull-down

N-term IgG	Molecule
0	B1
9	B2
0	B3
0	B4
2	B5
4	B6
2	B7
0	B8
3	B9

same assay, conditions: Co-IP with FLAG antibody, C-terminally FLAG-tagged B3GNT2; mass spectrometry count, unit not given

C-term flag	Molecule
3	B10

same assay, conditions: Co-IP with FLAG antibody, N-terminally FLAG-tagged B3GNT2; mass spectrometry count, unit not given

N-term FLAG	Molecule
0	B10

same assay, conditions: Co-IP with IgG control antibody, C-terminally FLAG-tagged B3GNT2; mass spectrometry count, unit not given

C-term IgG	Molecule
0	B10

same assay, conditions: Co-IP with IgG control antibody, N-terminally FLAG-tagged B3GNT2; mass spectrometry count, unit not given

N-term IgG	Molecule
0	B10
